Reference: PMC5748213

Assays:
[1] = molecular target: retromer (VPS26–VPS29–VPS35) (UniProt O75436); test: ITC
human VPS29 (human) = human VPS29 (human) (UniProt Q9UBQ0); test: ITC
[2] = molecular target: retromer (VPS26–VPS29–VPS35) (UniProt O75436); test: SEC-MALS

Substance	Kd [1]	other results
RidL (Lpg2311/Ceg28), full length (from UniProt Q5ZT54 1-1167) (natural protein)	151 nM	Kd (human VPS29 (human)): 181 nM; stoichiometry N (RidL per retromer (printed as 1:1)) [2]: 1; stoichiometry N (RidL per retromer (printed as 2:2)) [2]: 1
RidL_(30–236) (domain or fragment)	164 nM	–
TBC1D5TBC (TBC GAP domain of human TBC1D5, residues 1–419) (from UniProt Q92609 1-419) (domain or fragment)	450 nM	–
VARPc (VARP residues 396–746, the two cysteine-rich domains) (from UniProt Q96NW4 396-746) (domain or fragment)	3000 nM	–
retromer (VPS26–VPS29–VPS35) (from UniProt O75436;Q9UBQ0;Q96QK1) (complex)	–	stoichiometry N [2]: 2
